Measured values taken from patent US20250237662A1.

How the values were obtained:
[1] = biological target: humanized development candidate monoclonal antibody IgG4 (hIgG4); experiment: Gyrolab, mAb as capture, hIgG4 5000 ng/ml
[2] = biological target: humanized therapeutic monoclonal antibody IgG1 (hIgG1); experiment: ELISA, medium of transfected HEK293F; signal on hIgG1 over signal on cynoIgG
[3] = biological target: drug: a monoclonal antibody of human IgG4 isotype (PandA assay); experiment: PandA assay (PEG precipitation, acid dissociation, MSD plate, sulfo-TAG-drug), mAb 5 ug/ml in monkey plasma
[4] = biological target: humanized development candidate monoclonal antibody IgG4 (hIgG4); experiment: Gyrolab, mAb as capture, hIgG4 1000 ng/ml
[5] = biological target: internal research reagent human Fab (hFab); experiment: SPR (Biacore T200), mAb captured by anti-rabbit mAb on CM5, antigen 80-0 nM, 1:1 fit
[6] = biological target: humanized therapeutic monoclonal antibody IgG1 (hIgG1); experiment: as above
[7] = biological target: humanized development candidate monoclonal antibody IgG4 (hIgG4); experiment: as above
[8] = biological target: drug: a monoclonal antibody of human IgG4 isotype (PandA assay); experiment: PandA assay, monkey matrix, mAb 5 ug/ml
[9] = biological target: humanized development candidate monoclonal antibody IgG4 (hIgG4); experiment: Gyrolab, mAb as capture, hIgG4 200 ng/ml, against the blank
[10] = biological target: humanized development candidate monoclonal antibody IgG4 (hIgG4); experiment: direct ELISA, hIgG4 coated, B-cell culture medium
[11] = biological target: drug: a monoclonal antibody of human IgG4 isotype (PandA assay); experiment: PandA assay, mAb 1 ug/ml in monkey plasma
[12] = biological target: humanized development candidate monoclonal antibody IgG4 (hIgG4); experiment: Gyrolab, mAb as capture, hIgG4 8 ng/ml, against the blank
[13] = biological target: drug: a monoclonal antibody of human IgG4 isotype (PandA assay); experiment: PandA assay, monkey matrix, mAb 0.5 ug/ml
[14] = biological target: humanized development candidate monoclonal antibody IgG4 (hIgG4); experiment: Gyrolab, mAb as capture, hIgG4 5000 ng/ml, against the blank
[15] = biological target: drug: a monoclonal antibody of human IgG4 isotype (PandA assay); experiment: PandA assay, monkey matrix, mAb 0.75 ug/ml
[16] = biological target: drug: a monoclonal antibody of human IgG4 isotype (PandA assay); experiment: PandA assay, mAb 0.5 ug/ml in monkey plasma
[17] = biological target: humanized development candidate monoclonal antibody IgG4 (hIgG4); experiment: Gyrolab, mAb as capture, hIgG4 1.6 ng/ml
[18] = biological target: humanized development candidate monoclonal antibody IgG4 (hIgG4); experiment: ELISA, medium of transfected HEK293F; signal on hIgG4 over signal on cynoIgG
[19] = biological target: humanized development candidate monoclonal antibody IgG4 (hIgG4); experiment: Gyrolab, mAb as capture, hIgG4 1000 ng/ml, against the blank
[20] = biological target: humanized development candidate monoclonal antibody IgG4 (hIgG4); experiment: Gyrolab, mAb as capture, hIgG4 40 ng/ml, against the blank
[21] = biological target: humanized development candidate monoclonal antibody IgG4 (hIgG4); experiment: Gyrolab, mAb as capture, hIgG4 40 ng/ml
[22] = biological target: drug: a monoclonal antibody of human IgG4 isotype (PandA assay); experiment: PandA assay, monkey matrix, mAb 1 ug/ml
[23] = biological target: drug: a monoclonal antibody of human IgG4 isotype (PandA assay); experiment: PandA assay, mAb 0.75 ug/ml in monkey plasma
[24] = biological target: cynomolgus monkey IgG (cynoIgG); experiment: direct ELISA, cynoIgG coated (hIgG4/CynoIgG screen), B-cell culture medium
[25] = biological target: humanized therapeutic monoclonal antibody IgG1 (hIgG1); experiment: direct ELISA, hIgG1 coated, B-cell culture medium
[26] = biological target: cynomolgus monkey IgG (cynoIgG); experiment: direct ELISA, cynoIgG coated (hIgG1/CynoIgG screen), B-cell culture medium
[27] = biological target: humanized development candidate monoclonal antibody IgG4 (hIgG4); experiment: Gyrolab, mAb as capture, hIgG4 1.6 ng/ml, against the blank
[28] = biological target: humanized development candidate monoclonal antibody IgG4 (hIgG4); experiment: Gyrolab, mAb as capture, hIgG4 200 ng/ml
[29] = biological target: drug: a monoclonal antibody of human IgG4 isotype (PandA assay); experiment: PandA assay, signal to noise against the negative control
[30] = biological target: humanized development candidate monoclonal antibody IgG4 (hIgG4); experiment: Gyrolab, mAb as capture, hIgG4 0.32 ng/ml
[31] = biological target: humanized development candidate monoclonal antibody IgG4 (hIgG4); experiment: Gyrolab, mAb as capture, hIgG4 8 ng/ml
[32] = biological target: humanized development candidate monoclonal antibody IgG4 (hIgG4); experiment: Gyrolab, mAb as capture, hIgG4 0.32 ng/ml, against the blank

Av. Resp. [1]: 317
ELISA signal ratio hIgG1/CynoIgG [2]: 7.72
ECL Signal [3]: 2180
Av. Resp. [4]: 232
Kd [5]: 0.55 nM
koff [5]: 0.00146 s⁻¹
kon [5]: 2.65e+06 M⁻¹ s⁻¹
Kd [6]: 0.277 nM
koff [6]: 3.8e-05 s⁻¹
kon [6]: 137000 M⁻¹ s⁻¹
Kd [7]: 0.1 nM
koff [7]: 1.36e-05 s⁻¹
kon [7]: 135000 M⁻¹ s⁻¹
S/N (monkey) [8]: 15.7
S/B [9]: 41.7
OD450 [10]: 1.29 OD450
ECL Signal [11]: 426
S/B [12]: 3.2
S/N (monkey) [13]: 1.93
S/B [14]: 151
S/N (monkey) [15]: 2.51
ECL Signal [16]: 188
Av. Resp. [17]: 3
ELISA signal ratio hIgG4/CynoIgG [18]: 7.91
S/B [19]: 110
S/B [20]: 11.1
Av. Resp. [21]: 23.4
S/N (monkey) [22]: 3.39
ECL Signal [23]: 323
OD450 [24]: 0.124 OD450
OD450 [25]: 1.24 OD450
OD450 [26]: 0.107 OD450
S/B [27]: 1.4
Av. Resp. [28]: 87.7
S/N [29]: 1.98
Av. Resp. [30]: 2.1
Av. Resp. [31]: 6.6
S/B [32]: 1
B1: rabbit anti-human IgG monoclonal antibody clone 2C5 (antibody, V domains shown)
VH: QEQLVESGGDLVKPGASLTLTCTASGFSFSSGYYMCWVRQAPGKGLEWIACIYGGALTNTYYATWAKGRFTISKTSSTTVTLQMTSLTAADTATYFCARDLGAAGDAYNLWGPGTLVTVSS
VL: ASDMTQTPASVSAAVGGTVTIKCQASESIYSGLAWYQQKPGQPPKLLIFDASDLASGVPSRFKGSRSETEYTLTISDLECADAATYYCQCTDRNSITSYAFGGGTEVVVKG
